Tests used:
Experiment in all cases: cell-based or functional assay
[1] = biological target: HIV-1 Env of pseudovirus 231965.c01 (clade D) (HIV-1)
[2] = biological target: HIV-1 Env of pseudovirus 6041.v3.c23 (clade AC) (HIV-1)
[3] = biological target: HIV-1 Env of pseudovirus X2131_C1_B5 (clade G) (HIV-1)
[4] = biological target: HIV-1 Env of pseudovirus 0815.v3.c3 (clade ACD) (HIV-1)
[5] = biological target: HIV-1 Env of pseudovirus 231966.c02 (clade D) (HIV-1)
[6] = biological target: HIV-1 Env of pseudovirus A07412M1.vrc12 (clade D) (HIV-1)
[7] = biological target: HIV-1 Env of pseudovirus 89-F1_2_25 (clade CD) (HIV-1)
[8] = biological target: HIV-1 Env of pseudovirus 3016.v5.c45 (clade D) (HIV-1)
[9] = biological target: HIV-1 Env of pseudovirus 6952.v1.c20 (clade CD) (HIV-1)
[10] = biological target: HIV-1 Env of pseudovirus 6480.v4.c25 (clade CD) (HIV-1)
[11] = biological target: HIV-1 Env of pseudovirus 3415.v1.c1 (HIV-1)
[12] = biological target: HIV-1 Env of pseudovirus X1632_S2_B10 (clade G) (HIV-1)
[13] = biological target: HIV-1 Env of pseudovirus 263-8 (HIV-1)
[14] = biological target: HIV-1 Env of pseudovirus 6545.v4.c1 (clade AC) (HIV-1)
[15] = biological target: HIV-1 Env of pseudovirus 3817.v2.c59 (clade CD) (HIV-1)
[16] = biological target: HIV-1 Env of pseudovirus 3301.v1.c24 (clade AC) (HIV-1)
[17] = biological target: HIV-1 Env of pseudovirus 6540.v4.c1 (clade AC) (HIV-1)
[18] = biological target: HIV-1 Env of pseudovirus P1981_C5_3 (clade G) (HIV-1)
[19] = biological target: HIV-1 Env of pseudovirus 6811.v7.c18 (clade CD) (HIV-1)
[20] = biological target: HIV-1 Env of pseudovirus 3103.v3.c10 (clade ACD) (HIV-1)

Substance | IC50, titer in TZM.bl cells [1] | IC80, titer in TZM.bl cells [1] | IC50, titer in TZM.bl cells [2] | IC80, titer in TZM.bl cells [2] | IC50, titer in TZM.bl cells [3] | IC80, titer in TZM.bl cells [3] | IC50, titer in TZM.bl cells [4] | IC80, titer in TZM.bl cells [4] | IC50, titer in TZM.bl cells [5] | IC80, titer in TZM.bl cells [5] | IC50, titer in TZM.bl cells [6] | IC80, titer in TZM.bl cells [6] | IC50, titer in TZM.bl cells [7] | IC80, titer in TZM.bl cells [7] | IC50, titer in TZM.bl cells [8] | IC80, titer in TZM.bl cells [8] | IC50, titer in TZM.bl cells [9] | IC80, titer in TZM.bl cells [9] | IC50, titer in TZM.bl cells [10] | IC80, titer in TZM.bl cells [10] | other results
10-1074 (antibody) | > 50 µg/mL | > 50 µg/mL | > 50 µg/mL | > 50 µg/mL | 0.016 µg/mL | 0.064 µg/mL | 0.03 µg/mL | 0.138 µg/mL | > 50 µg/mL | > 50 µg/mL | < 0.001 µg/mL | 0.048 µg/mL | > 50 µg/mL | > 50 µg/mL | > 50 µg/mL | > 50 µg/mL | 0.037 µg/mL | 0.138 µg/mL | 0.009 µg/mL | 0.041 µg/mL | IC50, titer in TZM.bl cells [11]: > 50 µg/mL; IC80, titer in TZM.bl cells [11]: > 50 µg/mL; IC50, titer in TZM.bl cells [12]: > 50 µg/mL; IC80, titer in TZM.bl cells [12]: > 50 µg/mL; IC50, titer in TZM.bl cells [13]: 0.666 µg/mL; IC80, titer in TZM.bl cells [13]: 6.53 µg/mL; IC50, titer in TZM.bl cells [14]: > 50 µg/mL; IC80, titer in TZM.bl cells [14]: > 50 µg/mL; IC50, titer in TZM.bl cells [15]: 3.15 µg/mL; IC80, titer in TZM.bl cells [15]: 14.9 µg/mL; IC50, titer in TZM.bl cells [16]: 0.013 µg/mL; IC80, titer in TZM.bl cells [16]: 0.042 µg/mL; IC50, titer in TZM.bl cells [17]: > 50 µg/mL; IC80, titer in TZM.bl cells [17]: > 50 µg/mL; IC50, titer in TZM.bl cells [18]: 0.005 µg/mL; IC80, titer in TZM.bl cells [18]: 0.017 µg/mL; IC50, titer in TZM.bl cells [19]: 0.002 µg/mL; IC80, titer in TZM.bl cells [19]: 0.01 µg/mL; IC50, titer in TZM.bl cells [20]: 0.037 µg/mL; IC80, titer in TZM.bl cells [20]: 0.101 µg/mL
10E8 (antibody) | > 10 µg/mL | > 10 µg/mL | 2.33 µg/mL | 9.77 µg/mL | 0.189 µg/mL | 0.974 µg/mL | 0.332 µg/mL | 2.87 µg/mL | 0.191 µg/mL | 3.13 µg/mL | 0.576 µg/mL | 6.05 µg/mL | 1.11 µg/mL | 10 µg/mL | 0.476 µg/mL | 4.39 µg/mL | 0.343 µg/mL | 1.91 µg/mL | 8.08 µg/mL | > 10 µg/mL | IC50, titer in TZM.bl cells [12]: 1.98 µg/mL; IC80, titer in TZM.bl cells [12]: 9.68 µg/mL; IC50, titer in TZM.bl cells [13]: 0.196 µg/mL; IC80, titer in TZM.bl cells [13]: 1.73 µg/mL; IC50, titer in TZM.bl cells [14]: 1.78 µg/mL; IC80, titer in TZM.bl cells [14]: 8.23 µg/mL; IC50, titer in TZM.bl cells [15]: 1.18 µg/mL; IC80, titer in TZM.bl cells [15]: 5.98 µg/mL; IC50, titer in TZM.bl cells [16]: 4.63 µg/mL; IC80, titer in TZM.bl cells [16]: > 10 µg/mL; IC50, titer in TZM.bl cells [17]: 1.9 µg/mL; IC80, titer in TZM.bl cells [17]: 10 µg/mL; IC50, titer in TZM.bl cells [18]: 0.057 µg/mL; IC80, titer in TZM.bl cells [18]: 0.285 µg/mL; IC50, titer in TZM.bl cells [19]: 7.54 µg/mL; IC80, titer in TZM.bl cells [19]: > 10 µg/mL; IC50, titer in TZM.bl cells [20]: > 10 µg/mL; IC80, titer in TZM.bl cells [20]: > 10 µg/mL
PG9 (antibody) | 1.28 µg/mL | 48 µg/mL | 0.244 µg/mL | 3.64 µg/mL | 0.084 µg/mL | 0.286 µg/mL | > 50 µg/mL | > 50 µg/mL | 0.075 µg/mL | 0.257 µg/mL | 0.697 µg/mL | 7.96 µg/mL | 0.668 µg/mL | 10.1 µg/mL | 2.46 µg/mL | > 50 µg/mL | > 50 µg/mL | > 50 µg/mL | > 50 µg/mL | > 50 µg/mL | IC50, titer in TZM.bl cells [12]: 0.107 µg/mL; IC80, titer in TZM.bl cells [12]: 0.934 µg/mL; IC50, titer in TZM.bl cells [13]: 0.293 µg/mL; IC80, titer in TZM.bl cells [13]: 1.05 µg/mL; IC50, titer in TZM.bl cells [14]: 0.099 µg/mL; IC80, titer in TZM.bl cells [14]: 0.351 µg/mL; IC50, titer in TZM.bl cells [15]: 0.02 µg/mL; IC80, titer in TZM.bl cells [15]: 0.062 µg/mL; IC50, titer in TZM.bl cells [16]: 0.216 µg/mL; IC80, titer in TZM.bl cells [16]: 0.756 µg/mL; IC50, titer in TZM.bl cells [17]: 0.07 µg/mL; IC80, titer in TZM.bl cells [17]: 0.253 µg/mL; IC50, titer in TZM.bl cells [18]: 0.258 µg/mL; IC80, titer in TZM.bl cells [18]: 2.51 µg/mL; IC50, titer in TZM.bl cells [19]: > 50 µg/mL; IC80, titer in TZM.bl cells [19]: > 50 µg/mL; IC50, titer in TZM.bl cells [20]: 28 µg/mL; IC80, titer in TZM.bl cells [20]: > 50 µg/mL
PG16 (antibody) | 1.44 µg/mL | > 50 µg/mL | 0.048 µg/mL | 0.256 µg/mL | 0.024 µg/mL | 0.139 µg/mL | > 50 µg/mL | > 50 µg/mL | 0.007 µg/mL | 0.031 µg/mL | 0.343 µg/mL | > 50 µg/mL | 47.6 µg/mL | > 50 µg/mL | > 50 µg/mL | > 50 µg/mL | 21.9 µg/mL | > 50 µg/mL | > 50 µg/mL | > 50 µg/mL | IC50, titer in TZM.bl cells [12]: 0.012 µg/mL; IC80, titer in TZM.bl cells [12]: 0.076 µg/mL; IC50, titer in TZM.bl cells [13]: 0.347 µg/mL; IC80, titer in TZM.bl cells [13]: 4.97 µg/mL; IC50, titer in TZM.bl cells [14]: 0.044 µg/mL; IC80, titer in TZM.bl cells [14]: 1.56 µg/mL; IC50, titer in TZM.bl cells [15]: 0.008 µg/mL; IC80, titer in TZM.bl cells [15]: 0.06 µg/mL; IC50, titer in TZM.bl cells [16]: 0.02 µg/mL; IC80, titer in TZM.bl cells [16]: 0.087 µg/mL; IC50, titer in TZM.bl cells [17]: 0.035 µg/mL; IC80, titer in TZM.bl cells [17]: 0.42 µg/mL; IC50, titer in TZM.bl cells [18]: 0.376 µg/mL; IC80, titer in TZM.bl cells [18]: > 50 µg/mL; IC50, titer in TZM.bl cells [19]: > 50 µg/mL; IC80, titer in TZM.bl cells [19]: > 50 µg/mL; IC50, titer in TZM.bl cells [20]: 25.4 µg/mL; IC80, titer in TZM.bl cells [20]: > 50 µg/mL

Source: patent US20230002480A1
